*1 amine or outer side, *2 acyl side, *3 side chain or, on linkers, in order; H or OH if unused. Primed or numbered codes have the meaning given here. Where no end group is shown, it is not given here. [ ]: non-standard residue; d: D form. Pro(trans-4-NH2) = O=C([C@@H]1C[C@@H](N[*:3])CN1[*:1])[*:2]; Pro(cis-4-F) = O=C(O)[C@@H]1C[C@H](F)CN1; Pro(4,4-Me2) = CC1(C)CN[C@H](C(=O)O)C1; Asu′ = aspartimide (aminosuccinimide); Hyp = O=C(O)[C@@H]1C[C@@H](O)CN1; dHyp = O=C(O)[C@H]1C[C@H](O)CN1
How the values were obtained:
[1] = system: IL-1β secretion, Raw 264.7 cells; assay: Anti-inflammatory efficacy: IL-1β ELISA in LPS-stimulated Raw 264.7 macrophages; assay type: cell-based, mouse; settings: for IL-1β level increased by LPS: 1 h pretreatment, LPS 1 μg/ml 24 h; for anti-inflammatory effect by regulating the secretion of IL-1β: summary, concentration not given
Description: (§1) An anti-inflammatory efficacy was evaluated for representative examples of the above examples. Specifically, in order to confirm whether Examples 10, 32, 41, 55, 59 and 91, which are representative examples of 5 amino acid residues, Examples 11 and 30, which are representative examples of 6 amino acid residues, Example 86, which is a representative example of 7 amino acid residues, and Examples 103 and 104, which are representative examples of 8 amino acid residues, have an anti-inflammatory effect, a change in the secretion amount of inflammatory cytokines was confirmed by enzyme-linked immunosorbent assay (ELISA) using Raw 264.7 cells, which are macrophage (monocyte) cell lines.
(§2) Specifically, the Examples were diluted in Raw264.7 cells (Korean Cell Line Bank, 40071) at a concentration of 10 nM, 100 nM, 1 μM, and 10 μM, respectively, and pretreated for 1 hour, and then LPS (Sigma, L6529) at a concentration of 1 μg/ml was added to induce an inflammatory response. After 24 hours of induction, the cell culture supernatant was collected and analyzed. Enzyme-linked immunosorbent assay was performed using Mouse IL-6 Quantikine ELISA Kit (R&D systems, M6000B), TNF-alpha Quantikine ELISA Kit (R&D systems, MTA00B), Mouse IL-1 beta/IL-1F2 Quantikine ELISA Kit (R&D systems, MLB00C) in accordance with the manufacturer's manual.

[2] = Evaluation of dissolution stability (content change on storage in dissolved state); assay type: physicochemical; settings: 1 mg/1 ml dissolved state, 40° C. and RH 75%
[3] = system: TNFα secretion, Raw 264.7 cells; assay: Anti-inflammatory efficacy: TNFα ELISA in LPS-stimulated Raw 264.7 macrophages; assay type: cell-based, mouse; settings: for TNFα level increased by LPS: 1 h pretreatment, LPS 1 μg/ml 24 h; for anti-inflammatory activity by regulating the secretion of TNFα: summary, concentration not given
Description: as §1, §2

[4] = system: IL-6 secretion, Raw 264.7 cells; assay: Anti-inflammatory efficacy: IL-6 ELISA in LPS-stimulated Raw 264.7 macrophages; assay type: cell-based, mouse
Description: as §1, §2

Substance | Day 1 content (%) [2] | Day 3 content (%) [2] | Day 7 content (%) [2] | Initial content (%) [2] | other results
4,4-dimethyl Pro-Gly-Gln-Asp-Gly ([Pro(4,4-Me2)]GQDG) [Example 55] | 94.34% | 90.29% | 81.00% | 97.82% | IL-1β level increased by LPS ([1]; 100 nM peptide): significantly reduced; anti-inflammatory effect by regulating the secretion of IL-1β [1]: significant anti-inflammatory effect
Gln-Asu-Gly-Leu-Ala-Gly-Pro-Lys (Q[Asu′]GLAGPK) [Example 104] | 96.52% | 93.78% | 93.01% | 94.22% | TNFα level increased by LPS ([3]; 10 nM peptide): significantly reduced; anti-inflammatory activity by regulating the secretion of TNFα [3]: significant anti-inflammatory activity
Hyp-Gly-Gln-Asp-Gly ([Hyp]GQDG) [Example 10] |  | 86.65% | 78.68% | 98.76% | TNFα level increased by LPS ([3]; 10 nM peptide): significantly reduced; TNFα level increased by LPS ([3]; 1 μM peptide): significantly reduced; anti-inflammatory activity by regulating the secretion of TNFα [3]: significant anti-inflammatory activity; IL-1β level increased by LPS ([1]; 100 nM peptide): significantly reduced; IL-1β level increased by LPS ([1]; 1 μM peptide): significantly reduced; anti-inflammatory effect by regulating the secretion of IL-1β [1]: significant anti-inflammatory effect
Hyp-Gly-Gln-Asp-Gly-Leu ([Hyp]GQDGL) [Example 11] | 91.37% | 81.21% | 64.19% | 98.96% | TNFα level increased by LPS ([3]; 10 μM peptide): significantly reduced; anti-inflammatory activity by regulating the secretion of TNFα [3]: significant anti-inflammatory activity
Hyp-Gly-Gln-Asu-Gly-Leu-Ala-Gly ([Hyp]GQ[Asu′]GLAG) [Example 103] | 97.20% | 96.90% | 94.88% | 97.09% | IL-1β level increased by LPS ([1]; 1 μM peptide): significantly reduced; anti-inflammatory effect by regulating the secretion of IL-1β [1]: significant anti-inflammatory effect
Hyp-Gly-Gln-D Asp-Gly ([Hyp]GQ[dD]G) [Example 59] | 98.78% | 98.76% | 98.75% | 98.78% | anti-inflammatory activity by regulating the secretion of TNFα [3]: significant anti-inflammatory activity; IL-1β level increased by LPS ([1]; 100 nM peptide): significantly reduced; anti-inflammatory effect by regulating the secretion of IL-1β [1]: significant anti-inflammatory effect
Hyp-Gly-Gln-Glu-Leu-Leu-Ala ([Hyp]GQELLA) [Example 86] | 97.40% | 97.77% | 97.55% | 98.16% | IL-1β level increased by LPS ([1]; 10 nM peptide): significantly reduced; IL-1β level increased by LPS ([1]; 1 μM peptide): significantly reduced; IL-1β level increased by LPS ([1]; 10 μM peptide): significantly reduced; anti-inflammatory effect by regulating the secretion of IL-1β [1]: significant anti-inflammatory effect
Hyp-Gly-Gln-Leu-Leu-Leu ([Hyp]GQLLL) [Example 98] | 99.07% | 98.86% | 98.74% | 99.03% | 
Hyp-Gly-Gln-Leu-Leu-Leu-Ala ([Hyp]GQLLLA) [Example 96] | 97.14% | 96.64% | 96.02% | 98.07% | 
Hyp-Gly-Gln-Leu-Val ([Hyp]GQLV) [Example 95] | 98.62% | 98.10% | 97.78% | 98.64% | 
Hyp-Gly-Gln-Leu-Val-Leu ([Hyp]GQLVL) [Example 99] | 99.44% | 99.28% | 99.15% | 99.45% | 
Hyp-Gly-Gln-Leu-Val-Leu-Ala ([Hyp]GQLVLA) [Example 97] | 95.01% | 94.31% | 94.08% | 97.08% | 
Hyp-Gly-Leu-Ala-Gly-Pro-Lys ([Hyp]GLAGPK) [Example 27] | 98.16% | 98.15% | 98.16% | 98.24% | 
Hyp-Leu-Gln-Asp-Gly ([Hyp]LQDG) [Example 75] | 91.10% | 75.24% | 61.06% | 98.53% | 
Hyp-Val-Gln-Asp-Gly ([Hyp]VQDG) [Example 74] | 92.95% | 85.57% | 79.66% | 98.01% | 
LGLAGPK [Example 20] | 98.77% | 99.69% | 99.66% | 99.35% | 
Leu-Ala-Gly-Pro-Lys (LAGPK) [Example 25] | 85.76% | 81.09% | 77.40% | 89.14% | 

Substance | Day 1 content (%) [2] | Day 3 content (%) [2] | Day 7 content (%) [2] | Initial content (%) [2] | other results
PGQDGL [Example 77] | 86.66% | 80.88% | 69.44% | 92.01% | 
PGQDGLA [Example 78] | 92.18% | 85.14% | 74.01% | 97.41% | 
Pro-Gly-Gln-Asp-Gly (PGQDG) [Example 76] | 90.01% | 82.34% | 69.13% | 95.07% | 
QDGLAG [Example 30] | 95.61% | 94.27% | 91.57% | 96.44% | IL-6 level increased by LPS ([4]; 10 nM peptide, 1 h pretreatment, LPS 1 μg/ml 24 h): significantly reduced; anti-inflammatory activity by regulating the secretion of IL-6 ([4]; summary, concentration not given): significant anti-inflammatory activity
QDGLAGPK [Example 16] | 47.33% | 16.48% | 10.78% | 80.41% | 
QEGLAG [Example 70] | 90.84% | 88.52% | 85.77% | 92.41% | 
QLGLAGPK [Example 18] | 53.91% | 36.72% | 13.41% | 82.99% | 
[Hyp]GQDVLA [Example 37] | 98.64% | 97.76% | 93.55% | 98.59% | 
[Hyp]GQ[dD]GLA [Example 64] | 91.62% | 86.18% | 48.37% | 96.19% | 
[Hyp]G[dQ]DGL [Example 60] | 92.72% | 88.92% | 58.84% | 97.21% | 
[Hyp]G[dQ]DGLA [Example 63] | 88.74% | 81.41% | 64.20% | 94.37% | 
[dHyp]GQDG [Example 40] | 81.96% | 70.04% | 51.11% | 89.95% | 
cis-4F Pro-Gly-Gln-Asp-Gly-Leu-Ala ([Pro(cis-4-F)]GQDGLA) [Example 51] | 83.35% | 72.55% | 49.31% | 92.07% | 
cis-4F-Pro-Gly-Gln-Asp-Gly-Leu ([Pro(cis-4-F)]GQDGL) [Example 46] | 87.32% | 81.37% | 62.32% | 93.29% | 
trans-4NH2-Pro-Gly-Gln-Asp-Gly ([Pro(trans-4-NH2)]GQDG) [Example 42] | 65.09% | 52.07% | 37.87% | 71.84% | 
trans-4NH2-Pro-Gly-Gln-Asp-Gly-Leu ([Pro(trans-4-NH2)]GQDGL) [Example 47] | 84.03% | 75.02% | 51.42% | 94.90% | 
trans-4NH2-Pro-Gly-Gln-Asp-Gly-Leu-Ala ([Pro(trans-4-NH2)]GQDGLA) [Example 52] | 86.35% | 74.65% | 54.51% | 96.55% | 
